Tested on: serum uric acid (sUA)
Assay: Serum uric acid (sUA) levels and sUA responders, open-label study of pegloticase with MTX (NCT03635957)
Type: in vivo, human
Protocol: The primary objective is to estimate the response rate during Month 6 (Weeks 20, 22, and 24), as measured by the sustained normalization of serum uric acid (SUA) to <6 mg/dL for at least 80% of the time during Month 6 in subjects receiving KXX with MTX.
The primary efficacy outcome endpoint is the sustained normalization of SUA to <6 mg/dL for at least 80% of the time during month 6 (weeks 20, 22, and 24) in subjects receiving KXX with MTX. This is slightly below the urate solubility threshold and this threshold has been the accepted standard for nearly all modern gout trials. Participants who achieve this endpoint were classified as “responders.” Serum uric acid (SUA) responders may also be defined as participants achieving and maintaining SUA <6 mg/dL for at least 80% of the time during Month 6 (Weeks 20, 22, and 24).
Blood samples may be collected prior to each pegloticase infusion for measurement of SUA levels using the Beckman Coulter AU System Uric Acid procedure. Participants were declared “non-responders” if there were SUA measures >6 mg/dL at 2 consecutive study visits beginning with the week 2 visit. […] If the SUA goal is not maintained before or at the 12-week mark, it was assumed that the participant had developed clinically relevant anti-pegloticase antibody and they received no further infusions. This assumption and subsequent discontinuation of pegloticase was consistent with the protocol of large phase III randomized controlled trials and the product label. A formal stopping rule was 2 occasions of SUA levels of greater than 6 mg/dL.
Clinical Chemistry—Blood samples were collected prior to each pegloticase infusion for measurement of SUA levels (primary efficacy parameter) using the Beckman Coulter AU System Uric Acid procedure. In this procedure uric acid is converted to hydrogen peroxide. Hydrogen peroxide reacts with reagent to produce a chromophore which is read bichromatically at 660/800 nm. The amount of dye formed is proportional to the uric acid concentration in the sample.
Serum samples for measurement of SUA levels were collected at the Screening Visit, the Week −4 Visit (prior to the first dose of MTX), and the Week −2 Visit during the MTX Run-in Period; within 48 hours prior to each pegloticase infusion and after the end of each pegloticase infusion prior to discharge from the site during the Pegloticase+IMM Period; at the non-infusion Week 52/End of Study/Early Termination Visits and at the Post Treatment 3 and 6 Month Follow-up Visits. Additional serum samples for SUA levels were collected at optional non-infusion (Frequent Sampling) Visits at Weeks 1 and 7. […] Subjects with SUA level >6 mg/dL at 2 consecutive visits beginning at Week 2 visit discontinued treatment, completed the End of Pegloticase Infusion Visit procedures within 2 weeks and continued the subject visits according to the protocol (without treatment).
Efficacy analyses were performed using the modified intention-to-treat (mITT) population, defined as all enrolled subjects who received ≥1 dose of pegloticase. The proportion of Month 6 responders was summarized, along with a 95% confidence interval for the proportion. The proportion of Month 3 and overall (Months 3 and 6 combined) responders was analyzed similarly.
A subject was declared a non-responder if the subject had SUA level >6 mg/dL at 2 consecutive study visits beginning with the Week 2 Visit. In addition, a subject who withdraws from study treatment for any reason after the first dose of pegloticase in the KXX+MTX Period and prior to Month 6 (for the primary endpoint) or Month 3 (for the secondary endpoint) was considered a non-responder if SUA values were not collected at the planned time points.
Patients were administered oral MTX (15 mg/week) and folate (1 mg/day) 4 weeks prior to the first pegloticase infusion (Day 1) and throughout the pegloticase treatment period. […]

[1] = Week 18 - Pre-Infusion, Month 6 sUA Responders
[2] = Week 18 - Pre-Infusion, mITT, n=11
[3] = Week 20 - Post-Infusion, Month 6 sUA Responders
[4] = Week 20 - Post-Infusion, mITT, n=11
[5] = Week 20 - Pre-Infusion, Month 6 sUA Responders
[6] = Week 20 - Pre-Infusion, mITT, n=11
[7] = Week 22 - Post-Infusion, Month 6 sUA Responders
[8] = Week 22 - Post-Infusion, mITT, n=11
[9] = Week 22 - Pre-Infusion, Month 6 sUA Responders
[10] = Week 22 - Pre-Infusion, mITT, n=11
[11] = Week 24 - Post-Infusion, Month 6 sUA Responders
[12] = Week 24 - Post-Infusion, mITT, n=5
[13] = Week 24 - Pre-Infusion, Month 6 sUA Responders

B1: pegloticase (protein)
chain: TYKKNDEVEFVRTGYGKDMIKVLHIQRDGKYHSIKEVATTVQLTLSSKKDYLHGDNSDVIPTDTIKNTVNVLAKFKGIKSIETFAVTICEHFLSSFKHVIRAQVYVEEVPWKRFEKNGVKHVHAFIYTPTGTHFCEVEQIRNGPPVIHSGIKDLKVLKTTQSGFEGFIKDQFTTLPEVKDRCFATQVYCKWRYHQGRDVDFEATWDTVRSIVLQKFAGPYDKGEYSPSVQKTLYDIQVLTLGQVPEIEDMEISLPNIHYLNIDMSKMGLINKEEVLLPLDNPYGKITGTVKRKLSSRL
modifications: monomethoxy PEG conjugated; Krystexxa Sequence
notes: covalent conjugate of uricase produced by a genetically modified strain of Escherichia coli and monomethoxypoly (ethylene glycol)
0.30 mg/dL: sUA Observed, Mean [1] | sUA Observed, Median [1] | sUA Observed, Median [2] | sUA Observed, Mean [3] | sUA Observed, Median [3] | sUA Observed, Median [4] | sUA Observed, Mean [5] | sUA Observed, Median [5] | sUA Observed, Median [6] | sUA Observed, Mean [7] | sUA Observed, Median [7] | sUA Observed, Median [8] | sUA Observed, Mean [9] | sUA Observed, Median [9] | sUA Observed, Median [10] | sUA Observed, Mean [11] | sUA Observed, Median [11] | sUA Observed, Median [12] | sUA Observed, Mean [13] | sUA Observed, Median [13]
−9.18 (4.135) mg/dL: sUA Change from Baseline, Mean (SD) [12]
−8.97 (2.810) mg/dL: sUA Change from Baseline, Mean (SD) [2] | sUA Change from Baseline, Mean (SD) [4] | sUA Change from Baseline, Mean (SD) [6] | sUA Change from Baseline, Mean (SD) [8] | sUA Change from Baseline, Mean (SD) [10]
-8.97 mg/dL: sUA Change from Baseline, Mean [1] | sUA Change from Baseline, Mean [3] | sUA Change from Baseline, Mean [5] | sUA Change from Baseline, Mean [7] | sUA Change from Baseline, Mean [9] | sUA Change from Baseline, Mean [13]
0.30 (0.000) mg/dL: sUA Observed, Mean (SD) [2] | sUA Observed, Mean (SD) [4] | sUA Observed, Mean (SD) [6] | sUA Observed, Mean (SD) [8] | sUA Observed, Mean (SD) [10] | sUA Observed, Mean (SD) [12]
-8.80 mg/dL: sUA Change from Baseline, Median [1] | sUA Change from Baseline, Median [2] | sUA Change from Baseline, Median [3] | sUA Change from Baseline, Median [4] | sUA Change from Baseline, Median [5] | sUA Change from Baseline, Median [6] | sUA Change from Baseline, Median [7] | sUA Change from Baseline, Median [8] | sUA Change from Baseline, Median [9] | sUA Change from Baseline, Median [10] | sUA Change from Baseline, Median [13]
11 (100%): sUA < 6 mg/dL, n (%) [2] | sUA < 6 mg/dL, n (%) [4] | sUA < 6 mg/dL, n (%) [6] | sUA < 6 mg/dL, n (%) [8] | sUA < 6 mg/dL, n (%) [10]
-9.30 mg/dL: sUA Change from Baseline, Median [11] | sUA Change from Baseline, Median [12]
-9.18 mg/dL: sUA Change from Baseline, Mean [11]
(100%): sUA < 6 mg/dL, % [3] | sUA < 6 mg/dL, % [5] | sUA < 6 mg/dL, % [7] | sUA < 6 mg/dL, % [9] | sUA < 6 mg/dL, % [11] | sUA < 6 mg/dL, % [13]
5 (100%): sUA < 6 mg/dL, n (%) [12]
